For experiment [1], the target named is CD16A endogenously expressed on primary human NK cells (human) (UniProt P08637). Put plainly: flow cytometry on primary human NK cells, biotinylated antibody, 37 C, with 10 mg/mL polyclonal human IgG as competitor, mean of 4. Background: A flow cytometer gives signals particle by particle.
Experiment [2] shares this target. Put plainly: flow cytometry on primary human NK cells at 37 °C, biotinylated antibody, streptavidin-FITC, without polyclonal human IgG.
In experiment [3] the target is human CD16A-mFc (158F) (sAg_107) (human) (UniProt P08637). Put plainly: ELISA, plate coated with human CD16A-mFc (158F) (sAg_107), one-site fit, mean of 3.
human CD16A-mFc (158F) (sAg_107) (human), sequence (P08637 17-208 limits assumed): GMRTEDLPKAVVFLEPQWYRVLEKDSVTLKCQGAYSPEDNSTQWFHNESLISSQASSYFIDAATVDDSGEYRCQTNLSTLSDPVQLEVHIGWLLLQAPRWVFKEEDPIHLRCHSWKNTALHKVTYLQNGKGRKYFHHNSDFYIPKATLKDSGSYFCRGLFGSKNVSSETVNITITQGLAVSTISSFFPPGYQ
The target in experiment [4] is human CD16A-mFc (158V) (sAg_149) (human) (UniProt P08637). Nature of the experiment: ELISA, plate coated with human CD16A-mFc (158V), anti-mouse HRP detection, A450.
human CD16A-mFc (158V) (sAg_149) (human), sequence (P08637 17-208 F176V limits assumed): as the sequence (P08637 17-208 limits assumed) above, with F160V counted along it
The target in experiment [5] is human CD16A-mFc (158F) (sAg_107) (human) (UniProt P08637). Nature of the experiment: ELISA, plate coated with human CD16A-mFc (158F), anti-mouse HRP detection, A450. (In general: In an ELISA, binding on a coated surface is turned into a signal by an enzyme label.)
Experiment [6] concerns the target CD16A endogenously expressed on primary human NK cells (human) (UniProt P08637). Put plainly: flow cytometry on primary human NK cells, biotinylated antibody, 37 C, without IgG, mean of 4.

For one substance, Kd and EC50 (read off the curve) results are on record in patent publication US20240417475A1.

CD16A endogenously expressed on primary human NK cells (human), sequence (P08637 17-254 limits assumed): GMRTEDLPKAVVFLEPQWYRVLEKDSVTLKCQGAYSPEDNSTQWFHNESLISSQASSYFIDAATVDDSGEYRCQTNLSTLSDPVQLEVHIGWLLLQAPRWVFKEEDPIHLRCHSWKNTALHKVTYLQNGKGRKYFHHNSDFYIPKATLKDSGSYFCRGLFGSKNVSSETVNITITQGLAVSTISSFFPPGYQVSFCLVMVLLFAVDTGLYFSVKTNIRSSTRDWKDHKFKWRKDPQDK

For the substance anti-human CD16 antibody clone 3G8, the Kd – broadly, the equilibrium constant for the complex coming apart – worked out at 54600 pM in experiment [1], 20 pM in experiment [3] and 300 pM in experiment [6]. The EC50 (read off the curve) (commonly the concentration giving half of the maximal effect) came to 300 pM in experiment [2], 200 pM in experiment [4] and 30 pM in experiment [5].
